Assays:
[1] = target: 6xHis-CtpA(ΔN37, S302A), purified alone (Pseudomonas aeruginosa); assay: negative staining EM; CtpA(S302A) 10 μg/ml on carbon grids prepared at room temperature, uranium formate stain, 2D classification
[2] = target: 6xHis-CtpA(ΔN37, ΔC6) (Pseudomonas aeruginosa); assay: SEC; CtpA or CtpAΔC6 alone incubated at 30 °C for 15 min in 20 mM Tris pH 7.5, 5 mM MgCl2, 100 mM KCl; Superdex 200 increase
[3] = target: 6xHis-CtpA(ΔN37, ΔC6) (Pseudomonas aeruginosa); assay: SEC; separately purified CtpA (or CtpAΔC6) mixed with LbcA at molar ratios 6:1, 6:2, 6:3, 30 °C for 15 min in 20 mM Tris pH 7.5, 5 mM MgCl2, 100 mM KCl; Superdex 200 increase; peaks analysed by SDS-PAGE
[4] = target: 6xHis-CtpA(ΔN37, ΔC6) (Pseudomonas aeruginosa); assay: cryo-EM 2D class averages of a cross-linked mixture; CtpAΔC6 mixed with LbcA at 6:4 molar ratio, 30 °C for 15 min in 20 mM HEPES pH 7.5, 5 mM MgCl2, 100 mM KCl, cross-linked with 1 mM BS(PEG)9 on ice overnight; 2D classification
[5] = target: CtpA as used in the gel filtration experiments (Pseudomonas aeruginosa); assay: not stated; CtpA alone on ice at 4 °C (Appendix Fig. S12a)
[6] = target: CtpA as used in the gel filtration experiments (Pseudomonas aeruginosa); assay: SEC; CtpA or CtpAΔC6 alone incubated at 30 °C for 15 min in 20 mM Tris pH 7.5, 5 mM MgCl2, 100 mM KCl; Superdex 200 increase
[7] = target: CtpA as used in the gel filtration experiments (Pseudomonas aeruginosa); assay: as above; remark: listed apart in the source
[8] = target: CtpA as used in the gel filtration experiments (Pseudomonas aeruginosa); assay: SEC; separately purified CtpA (or CtpAΔC6) mixed with LbcA at molar ratios 6:1, 6:2, 6:3, 30 °C for 15 min in 20 mM Tris pH 7.5, 5 mM MgCl2, 100 mM KCl; Superdex 200 increase; peaks analysed by SDS-PAGE
[9] = target: CtpA(ΔN37, S302A), co-expressed with LbcA(ΔN31), 6xHis tag removed (Pseudomonas aeruginosa); assay: cryo-EM structure; co-expressed CtpA(ΔN37, S302A)-LbcA(ΔN31) complex purified by HiTrap Ni, HiTrap Q and Superose 6 Increase (20 mM Tris pH 7.5, 5 mM MgCl2, 100 mM KCl, 1 mM DTT), 0.8 mg/ml; single particle analysis; molar ratio judged by band intensity in stained SDS-PAGE gels
[10] = target: 6xHis-CtpA(ΔN37), wild type (Pseudomonas aeruginosa); assay: ITC; 250 μM LbcA in the syringe titrated into 9 μM CtpA hexamer (32 μM for CtpAΔC6 dimer) in the cell; 25 °C; 20 mM Tris pH 7.5, 5 mM MgCl2, 100 mM KCl; one-site fit
[11] = target: 6xHis-CtpA(ΔN37, S302A), purified alone (Pseudomonas aeruginosa); assay: as above
[12] = target: 6xHis-CtpA(ΔN37, ΔC6) (Pseudomonas aeruginosa); assay: as above

Question: How did the stoichiometry N [1] turn out when “6xHis-CtpA(ΔN37, S302A), purified alone (enzyme)” was run?
Answer: 2

Question: 6xHis-CtpA(ΔN37, ΔC6) (enzyme) was tested. Which stoichiometry N [2] did it give?
Answer: 2

Question: What about the stoichiometry N [3] of the same substance?
Answer: 2

Question: What about the stoichiometry N [4] of the same substance?
Answer: 2

Question: “CtpA as used in the gel filtration experiments (printed only as CtpA) (enzyme)” was tested. Which stoichiometry N [5] did it give?
Answer: 6

Question: And the stoichiometry N [6]?
Answer: 2

Question: What about the stoichiometry N [7] of the same substance?
Answer: 6

Question: What about the stoichiometry N [8] of the same substance?
Answer: 6

Question: How did the stoichiometry N [9] turn out when “CtpA(ΔN37, S302A), co-expressed with LbcA(ΔN31), 6xHis tag removed (enzyme)” was run?
Answer: 6

Question: “LbcA(ΔN31) with C-terminal 6xHis tag, purified alone (natural protein)” was tested. Which Kd [10] did it give?
Answer: 920 nM

Question: What about the Kd [11] of the same substance?
Answer: 760 nM

Question: And the stoichiometry N (LbcA per CtpA dimer) [11]?
Answer: 1

Question: What about the Kd [12] of the same substance?
Answer: 850 nM

Question: And the stoichiometry N (CtpA:LbcA (molar ratio)) [8]?
Answer: 2

Question: “LbcA(ΔN31), co-expressed with CtpA(ΔN37, S302A) (natural protein)” was tested. Which stoichiometry N (CtpA:LbcA (molar ratio)) [9] did it give?
Answer: 2
